± gives the half width of the 95% confidence interval.

Consider 18 sequences from the supplement of paper PMC12764529.

Series [1] in a line: folding stability dG unfold from trypsin proteolysis; higher = more stable. Put shortly:
(§1)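 Digests were run with trypsin and chymotrypsin at 11 concentrations in threefold dilutions, plus a no-protease condition, on designed mini-proteins in a PA-tagged cDNA display construct. The mini-proteins were under 80 residues, had no cysteine, and were kept only when AlphaFold2 dimer inter-PAE was above 15. After sequencing, Bayesian fitting of the counts gave K50, from which unfolding free energy was derived against a sequence-predicted unfolded-state K50 and a shared folded-state K50, per protease or combined.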

The nature of series [2]: folding stability dG unfold from chymotrypsin proteolysis; higher = more stable. The essentials: as §1
Series [3] in a line: folding stability dG unfold (combined trypsin and chymotrypsin); higher = more stable. The essentials: as §1

For “SAGGSAGGSAGGAKTTTLGSESEEEIRAVAAKLPADSTITTNRPGGTSVITVSPNEIVTNSAGGSAGGSAGG [r7_560_JUSTAS]”, the results for the “folding stability dG unfold” value in series [1], in series [2] and in series [3] were 0.144 ± 0.043 kcal/mol, 1.22 ± 0.046 kcal/mol and 0.836 ± 0.055 kcal/mol, respectively.

Take “SAGGSAGGSAGGALEEKAKEIIEELKKKGIKVKEVKTSPNEITITFEDGSTKKIPIINGSAGGSAGGSAGGS [r10_169_JUSTAS]”: the “folding stability dG unfold” value in series [1] was determined as 2.55 ± 0.12 kcal/mol; in series [2], 2.54 ± 0.16 kcal/mol; in series [3] it was 2.66 ± 0.1 kcal/mol.

Consider “SAGGSAGGSAGGAPAAVESVEPLKIGDKEYLRITFPDGTTVTLPSSTPLSPDGQKLKPVPSAGGSAGGSAGG [r7_931_JUSTAS]”, for which the “folding stability dG unfold” value in series [1] came out at 0.65 ± 0.042 kcal/mol; in series [2], 0.503 ± 0.031 kcal/mol; in series [3] it was 0.628 ± 0.033 kcal/mol.

Consider “SAGGSAGGSAGGAPEKEVTVRVRITVFRDGKPVEEIELEPGQTLTFPPGARVVIEVELLPSAGGSAGGSAGG [r7_141_TrROS_Hall]”, for which the “folding stability dG unfold” value in series [1] worked out at 3 ± 0.13 kcal/mol; in series [2] it was 3.51 ± 0.12 kcal/mol; in series [3], 3.39 ± 0.17 kcal/mol.

In the case of “SAGGSAGGSAGGAPEVKRVLVLVEVEVKPGDTIELPEGARVIWDPKTRRLYVLVEVELRPSAGGSAGGSAGG [r7_584_TrROS_Hall]”, the entries for the “folding stability dG unfold” value in series [1], in series [2] and in series [3] were 2.73 ± 0.12 kcal/mol, 3.77 ± 0.057 kcal/mol and 3.38 ± 0.13 kcal/mol, respectively.

As to “SAGGSAGGSAGGAPPPPVKVKVVEIEEEGGERRIRVENEDTGEVVELRVPKGAEVLEELSAGGSAGGSAGGS [r10_1038_TrROS_Hall]”, the “folding stability dG unfold” value in series [1] came out at 1.32 ± 0.048 kcal/mol; in series [2], 1.37 ± 0.055 kcal/mol; in series [3], 1.23 ± 0.16 kcal/mol.

“SAGGSAGGSAGGAPVEVKTAVFRHPDNPRWYVLRVARLPGTGRLVVVLFDPETGEFAVFPSAGGSAGGSAGG [r7_923_TrMRF]”: the “folding stability dG unfold” value in series [1] stood at 0.755 ± 0.087 kcal/mol; in series [2] it was 2.18 ± 0.16 kcal/mol; in series [3], 1.67 ± 0.16 kcal/mol.

Turning to “SAGGSAGGSAGGATAEELAAALKELEAKLKALLEKPEEVEVEVEVKAPEVEEVDGKLVLLSAGGSAGGSAGG [r7_44_TrROS_Hall]”, the “folding stability dG unfold” value was 0.651 ± 0.041 kcal/mol in series [1], -1.19 ± 0.33 kcal/mol in series [2] and 0.145 ± 0.11 kcal/mol in series [3].

In the case of “SAGGSAGGSAGGATFKPGETVRVEVEVELRVFKVDEETGEIVEETETVTVRVEVEVRLESAGGSAGGSAGGS [r10_122_TrROS_Hall]”, the “folding stability dG unfold” value is 1.87 ± 0.1 kcal/mol in series [1], 2.32 ± 0.053 kcal/mol in series [2] and 2.04 ± 0.11 kcal/mol in series [3].

In the case of “SAGGSAGGSAGGDDNDPGKIKIEVEVETYPIPNPNGEPFYITTHTIKIPNLDIEFMMIMPSAGGSAGGSAGG [r7_945_TrROS]”, the results for the “folding stability dG unfold” value in series [1], in series [2] and in series [3] were 2.01 ± 0.1 kcal/mol, 1.45 ± 0.039 kcal/mol and 1.7 ± 0.11 kcal/mol, respectively.

On to “SAGGSAGGSAGGDIFIPPNGKLVVIENLPSIEEALEILKNFPNLKPFIDPKTKKIIVPVSAGGSAGGSAGGS [r10_792_TrMRF]”, for which the “folding stability dG unfold” value is -0.145 ± 0.075 kcal/mol in series [1], -0.338 ± 0.045 kcal/mol in series [2] and -0.216 ± 0.099 kcal/mol in series [3].

Consider “SAGGSAGGSAGGDNVLILVKLPKGYRVYSINDPEVLKAVTLKELKDELEKKTGYPVEVLPSAGGSAGGSAGG [r7_259_TrMRF]”, for which the “folding stability dG unfold” value in series [1] amounted to 1.48 ± 0.041 kcal/mol; in series [2] it was 1.66 ± 0.18 kcal/mol; in series [3] it was 1.57 ± 0.22 kcal/mol.

For the sequence “SAGGSAGGSAGGDPDDKPPKIEWKPIEYSFYLPNGWMISDEIWVFPDNGAILISIEIMPSAGGSAGGSAGGS [r10_881_TrROS]”, the “folding stability dG unfold” value in series [1] was found to be 2.48 ± 0.21 kcal/mol; in series [2] it was 3.67 ± 0.31 kcal/mol; in series [3], 3.37 ± 0.95 kcal/mol.

As for “SAGGSAGGSAGGDPKKKKGGTFTLTFKLKFTVNIPEGKVEYEFKAKIKITINEPPDFGLSSAGGSAGGSAGG [r7_485_TrMRF]”, the “folding stability dG unfold” value in series [1] was 3.81 ± 0.2 kcal/mol; in series [2], 5.81 ± 0.23 kcal/mol; in series [3], 5.67 ± 0.3 kcal/mol.

“SAGGSAGGSAGGDRLKIIIPFPPGMDIDQIAEELKPHFKKVEIEHDKEDGWVTIEVELDSAGGSAGGSAGGS [r10_1007_TrROS]”: the entries for the “folding stability dG unfold” value in series [1], in series [2] and in series [3] were 0.271 ± 0.097 kcal/mol, 1.08 ± 0.1 kcal/mol and 0.939 ± 0.15 kcal/mol, respectively.

Regarding “SAGGSAGGSAGGDSMSYDPKLVEEPVVEVFDGPVLVRVTEVTLPNGKKLTTTEELPPGLESAGGSAGGSAGG [r7_846_JUSTAS]”, the “folding stability dG unfold” value in series [1] is -0.436 ± 0.17 kcal/mol; in series [2], 0.796 ± 0.05 kcal/mol; in series [3], 0.546 ± 0.09 kcal/mol.

On to “SAGGSAGGSAGGDSNVDNFTLMFPWGWVVKIDITYTDGGLETDWEIIEPVPPLPPDDKNKSAGGSAGGSAGG [r7_845_TrROS]”, for which the figures for the “folding stability dG unfold” value in series [1], in series [2] and in series [3] were 1.6 ± 0.081 kcal/mol, 3.54 ± 0.037 kcal/mol and 2.77 ± 0.12 kcal/mol, respectively.

In the case of “SAGGSAGGSAGGDSVQIEFPDNGMTITINPNNGPISIMEPDGKKKTYPVDSPEEALDAISAGGSAGGSAGGS [r10_849_TrROS]”, the “folding stability dG unfold” value worked out at 0.221 ± 0.027 kcal/mol in series [1], 1.42 ± 0.042 kcal/mol in series [2] and 1.14 ± 0.061 kcal/mol in series [3].
